Our source for the IC50 of inhibition of PmV cleavage of the fluorogenic HRPII-PExEl substrate (enzyme pre-mixed with inhibitor), IC50 of inhibition of PmV cleavage of the fluorogenic HRPII-PExEl substrate (inhibitor added after the reaction was initiated) and Ki values is PMC4643876, “Picomolar Inhibition of Plasmepsin V, an Essential Malaria Protease, Achieved Exploiting the Prime Region” (PLoS ONE, 2015).

Test [1] has as its target GFP-tagged Plasmepsin V (PmV-GFP), P. falciparum clone DC6 (Plasmodium falciparum).
Test [2] has the same target. In words: enzyme inhibition (fluorogenic substrate cleavage), Ki calculated from IC50; bead-bound PmV-GFP at <=10 pM, 3 uM DABCYL-[…]-EDANS substrate, serial dilution of inhibitor 10 uM to 0.1 pM, 37 C, 50 mM Tris-Maleate pH 6.5, 50 mM NaCl, 0.05% TX-100, 2 mM DTT; Ki from IC50 = Ki (1 + [S]/KM).

Chain of GFP-tagged Plasmepsin V (PmV-GFP), P. falciparum clone DC6 (Plasmodium falciparum) (Q8I6Z5 whole entry): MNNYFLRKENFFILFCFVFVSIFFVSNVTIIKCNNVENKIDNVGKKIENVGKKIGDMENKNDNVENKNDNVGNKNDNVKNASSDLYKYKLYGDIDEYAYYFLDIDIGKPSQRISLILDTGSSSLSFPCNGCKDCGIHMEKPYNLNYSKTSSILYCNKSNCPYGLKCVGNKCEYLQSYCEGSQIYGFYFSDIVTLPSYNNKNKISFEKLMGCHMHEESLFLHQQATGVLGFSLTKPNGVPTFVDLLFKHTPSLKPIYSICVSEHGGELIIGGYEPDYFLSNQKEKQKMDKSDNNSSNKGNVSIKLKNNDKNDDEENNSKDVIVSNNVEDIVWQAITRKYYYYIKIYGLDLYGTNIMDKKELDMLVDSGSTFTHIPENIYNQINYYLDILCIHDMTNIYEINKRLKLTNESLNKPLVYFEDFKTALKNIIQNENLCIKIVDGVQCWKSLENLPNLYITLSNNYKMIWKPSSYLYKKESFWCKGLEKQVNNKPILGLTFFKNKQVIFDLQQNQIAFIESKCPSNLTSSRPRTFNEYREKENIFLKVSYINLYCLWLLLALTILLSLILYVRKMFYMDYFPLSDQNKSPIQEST

In test [1], Compound 1 (LG20), RL[L~A]EA (peptide) came in with an IC50 of inhibition of PmV cleavage of the fluorogenic HRPII-PExEl substrate (enzyme pre-mixed with inhibitor) of 0.367 nM and an IC50 of inhibition of PmV cleavage of the fluorogenic HRPII-PExEl substrate (inhibitor added after the reaction was initiated) of 0.329 nM. The Ki in test [2] was 0.197 nM.

For orientation: Ki means the equilibrium dissociation constant of an inhibitor or competing ligand from its target.
